Data: patent US20260193326A1
Residue numbers refer to the chain shown, from its start.

B1: A4-C1 (VHH)
chain: VQLQESGGGLVQPGGSLRLSCAASGSGFSINTMGWYRQAPGKQRELVATVTRDGSTNYADFVKGRFTISRDNAKNTVYLQMNSLRPEDTAVYYCHLDEVRESSWTTSNLWGQGTQVTVSSGGGGSGGGGSGGGGSVQLQESGGGLVQPGGSLRLSCAASGSGFSINTMGWYRQAPGKQRELVATVTRDGSTNYADFVKGRFTISRDNAKNTVYLQMNSLRPEDTAVYYCHLDEVRESSWTTSNLWGQGTQVTVSSGGGGSGGGGSGGGGSVQLQESGGGLVQPGGSLRLSCAASGSGFSINTMGWYRQAPGKQRELVATVTRDGSTNYADFVKGRFTISRDNAKNTVYLQMNSLRPEDTAVYYCHLDEVRESSWTTSNLWGQGTQVTVSS
B2: A4-B1 (VHH)
chain: VQLQESGGGLVQPGGSLRLSCAASGSIFSINLMGWYRQAPGKQRELVATITRGGNTNYAGSVKGRFTISRDNAKNTVYLQMNSLRPEDTAVYYCHVDEVRQSSWTTSNLWGQGTQVTVSSGGGGSGGGGSGGGGSVQLQESGGGLVQPGGSLRLSCAASGSIFSINLMGWYRQAPGKQRELVATITRGGNTNYAGSVKGRFTISRDNAKNTVYLQMNSLRPEDTAVYYCHVDEVRQSSWTTSNLWGQGTQVTVSS
B3: A4-C3 (bispecific antibody)
chain: VQLQESGGGLVQPGGSLRLSCAASGSIFSINLMGWYRQAPGKQRELVATITRGGNTNYAGSVKGRFTISRDNAKNTVYLQMNSLRPEDTAVYYCHVDEVRQSSWTTSNLWGQGTQVTVSSGGGGSGGGGSGGGGSVQLQESGGGLVQPGGSLRLSCAASGSIFSINLMGWYRQAPGKQRELVATITRGGNTNYAGSVKGRFTISRDNAKNTVYLQMNSLRPEDTAVYYCHVDEVRQSSWTTSNLWGQGTQVTVSSGGGGSGGGGSGGGGSVQLQESGGGLVQPGGSLRLSCAASGSNFRINTMGWYRQAPGKQRELVATVTRGGSTNYADSVKGRFTISRDNPKDTVYLQMNSLRPEDTAVYYCHVDEVRESSWTTSNLWGQGTQVTVSS
B4: A4-C4 (bispecific antibody)
chain: VQLQESGGGLVQAGGSLRLSCAASGSRFSINTMGWYRQAPGKQREFVATVTRGGNTNYAESVKGRFTISRDNAKNTVYLQMNSLRPEDTAVYYCHVDEVRDSSWTTSNIWGQGTQVTVSSGGGGSGGGGSGGGGSVQLQESGGGLVQAGGSLRLSCAASGSRFSINTMGWYRQAPGKQREFVATVTRGGNTNYAESVKGRFTISRDNAKNTVYLQMNSLRPEDTAVYYCHVDEVRDSSWTTSNIWGQGTQVTVSSGGGGSGGGGSGGGGSVQLQESGGGLVQPGGSLRLSCAASGSNFRINTMGWYRQAPGKQRELVATVTRGGSTNYADSVKGRFTISRDNPKDTVYLQMNSLRPEDTAVYYCHVDEVRESSWTTSNLWGQGTQVTVSS
B5: A4-C5 (bispecific antibody)
chain: VQLQESGGGLVQPGGSLRLSCAASGSNFRINTMGWYRQAPGKQRELVATVTRGGSTNYADSVKGRFTISRDNPKNTVYLQMNSLRPEDTAVYYCHVDEVRESSWTTSNLWGQGTQVTVSSGGGGSGGGGSGGGGSVQLQESGGGLVQPGGSLRLSCAASGSNFSINTMGWYRQAPGKQRELVATVTRGGDTNYADSVKGRFTISRDNAKNTVYLQMNSLRPEDTAVYYCHVDEIRESSWTTSNLWGQGTQVTVSSGGGGSGGGGSGGGGSVQLQESGGGLVQPGGSLRLSCAASGSNFRINTMGWYRQAPGKQRELVATVTRGGSTNYADSVKGRFTISRDNPKNTVYLQMNSLRPEDTAVYYCHVDEVRESSWTTSNLWGQGTQVTVSS
B6: A4-C8 (bispecific antibody)
chain: B5 chain with T49P, P73A, R299S, T319A, V320L, P343A
B7: A4-C9 (bispecific antibody)
chain: B5 chain with R29S, S55D, P73A, V99I, T184A, V185L, D190S, I234V, T319P, P343A
B8: A4-C6 (bispecific antibody)
chain: B5 chain with T49P, P73A, T184A, V185L, D190S, I234V, R299S, S325D, P343A, V369I
B9: A4-B2 (bispecific antibody)
chain: VQLQESGGGLVQAGGSLRLSCAASGSRFSINTMGWYRQAPGKQREFVATVTRGGNTNYAESVKGRFTISRDNAKNTVYLQMNSLRPEDTAVYYCHVDEVRDSSWTTSNIWGQGTQVTVSSGGGGSGGGGSGGGGSVQLQESGGGLVQAGGSLRLSCAASGSTFSINTMGWYRQAPGKQRELVATITRGGNTNYADSVKGRFTISRDNAKNTVYLQMNSLRPEDTAVYYCHVDEVRQSSWTTSNLWGQGTQVTVSS
B10: A4-C7 (bispecific antibody)
chain: VQLQESGGGLVQPGGSLRLSCAASGSNFSINTMGWYRQAPGKQRELVATVTRGGDTNYADSVKGRFTISRDNAKNTVYLQMNSLRPEDTAVYYCHVDEIRESSWTTSNLWGQGTQVTVSSGGGGSGGGGSGGGGSVQLQESGGGLVQPGGSLRLSCAASGSNFRINTMGWYRQAPGKQRELVAPVTRGGSTNYADSVKGRFTISRDNAKNTVYLQMNSLRPEDTAVYYCHVDEVRESSWTTSNLWGQGTQVTVSSGGGGSGGGGSGGGGSVQLQESGGGLVQPGGSLRLSCAASGSSFTINTMGWYRQAPGKQRELVAAVTRGGSTNYAGSVKGRFTISRDNAKNTIYLQMNSLRPEDTAVYYCHVDEIRQSSWTTSNLWGQGTQVTVSS
B11: A4-C2 (VHH)
chain: VQLQESGGGLVQPGGSLRLSCAASGSAFSINTMGWYRQAPGKQRELVASVTPGGSTNYADSVKGRFTISRDNAKNTIYLQMNSLRPEDTAVYYCHLDEVRESSWTTSNLWGQGTQVTVSSGGGGSGGGGSGGGGSVQLQESGGGLVQPGGSLRLSCAASGSAFSINTMGWYRQAPGKQRELVASVTPGGSTNYADSVKGRFTISRDNAKNTIYLQMNSLRPEDTAVYYCHLDEVRESSWTTSNLWGQGTQVTVSSGGGGSGGGGSGGGGSVQLQESGGGLVQPGGSLRLSCAASGSAFSINTMGWYRQAPGKQRELVASVTPGGSTNYADSVKGRFTISRDNAKNTIYLQMNSLRPEDTAVYYCHLDEVRESSWTTSNLWGQGTQVTVSS
B12: A4-D1 (VHH)
chain: VQLQESGGGLAQAGGSLRLSCAASGRGFSINTMGWYRQAPGKQRELVAAVTRGGTTNYADSVKGRFTISRDNAKNTVYLQMNSLRPEDTAVYYCHVDEVRQSSWTTSNLWGQGTQVTVSSGGGGSGGGGSGGGGSVQLQESGGGLAQAGGSLRLSCAASGRGFSINTMGWYRQAPGKQRELVAAVTRGGTTNYADSVKGRFTISRDNAKNTVYLQMNSLRPEDTAVYYCHVDEVRQSSWTTSNLWGQGTQVTVSSGGGGSGGGGSGGGGSVQLQESGGGLAQAGGSLRLSCAASGRGFSINTMGWYRQAPGKQRELVAAVTRGGTTNYADSVKGRFTISRDNAKNTVYLQMNSLRPEDTAVYYCHVDEVRQSSWTTSNLWGQGTQVTVSSGGGGSGGGGSGGGGSVQLQESGGGLAQAGGSLRLSCAASGRGFSINTMGWYRQAPGKQRELVAAVTRGGTTNYADSVKGRFTISRDNAKNTVYLQMNSLRPEDTAVYYCHVDEVRQSSWTTSNLWGQGTQVTVSS

Target: AAV5 (adeno-associated virus serotype 5)
Test: SPR, AAV on CM5 chip

Binder	Kd	koff	kon
B1	13.2 nM	0.00138 s⁻¹	104000 M⁻¹ s⁻¹
B2	0.102 nM	1.23e-05 s⁻¹	121000 M⁻¹ s⁻¹
B3	0.628 nM	9e-05 s⁻¹	143000 M⁻¹ s⁻¹
B4	6.72 nM	0.00121 s⁻¹	180000 M⁻¹ s⁻¹
B5	7.86 nM	0.0013 s⁻¹	165000 M⁻¹ s⁻¹
B6	0.69 nM	0.00013 s⁻¹	188000 M⁻¹ s⁻¹
B7	0.777 nM	5e-05 s⁻¹	64300 M⁻¹ s⁻¹
B8	0.785 nM	0.000139 s⁻¹	177000 M⁻¹ s⁻¹
B9	7.38 nM	0.00117 s⁻¹	159000 M⁻¹ s⁻¹
B10	0.0732 nM	3.2e-05 s⁻¹	437000 M⁻¹ s⁻¹
B11	0.691 nM	0.000134 s⁻¹	194000 M⁻¹ s⁻¹
B12	0.0576 nM	2.2e-06 s⁻¹	38200 M⁻¹ s⁻¹

Target: AAV8 (adeno-associated virus serotype 8)
Test: SPR, AAV on CM5 chip

Binder	Kd	koff	kon
B1	9.2 nM	0.00164 s⁻¹	178000 M⁻¹ s⁻¹
B2	1.63 nM	0.000154 s⁻¹	94500 M⁻¹ s⁻¹
B3	0.534 nM	4e-05 s⁻¹	74900 M⁻¹ s⁻¹
B4	2.36 nM	0.00025 s⁻¹	106000 M⁻¹ s⁻¹
B5	4.97 nM	0.00091 s⁻¹	183000 M⁻¹ s⁻¹
B6	2.81 nM	0.00037 s⁻¹	132000 M⁻¹ s⁻¹
B7	1.14 nM	0.00013 s⁻¹	114000 M⁻¹ s⁻¹
B8	2.67 nM	0.00044 s⁻¹	165000 M⁻¹ s⁻¹
B9	1.02 nM	0.00014 s⁻¹	138000 M⁻¹ s⁻¹
B10	3.7 nM	0.00047 s⁻¹	127000 M⁻¹ s⁻¹
B11	0.359 nM	5e-05 s⁻¹	139000 M⁻¹ s⁻¹
B12	0.0543 nM	1.81e-05 s⁻¹	334000 M⁻¹ s⁻¹

Target: AAV9 (adeno-associated virus serotype 9)
Test: SPR, AAV on CM5 chip

Binder	Kd	koff	kon
B1	1.03 nM	1e-05 s⁻¹	9690 M⁻¹ s⁻¹
B2	0.715 nM	0.00014 s⁻¹	196000 M⁻¹ s⁻¹
B3	0.491 nM	9e-05 s⁻¹	183000 M⁻¹ s⁻¹
B4	1.87 nM	0.00031 s⁻¹	165000 M⁻¹ s⁻¹
B5	1.68 nM	0.0002 s⁻¹	119000 M⁻¹ s⁻¹
B6	0.279 nM	5e-05 s⁻¹	179000 M⁻¹ s⁻¹
B7	0.669 nM	0.00013 s⁻¹	194000 M⁻¹ s⁻¹
B8	0.55 nM	2.5e-05 s⁻¹	45400 M⁻¹ s⁻¹
B9	8.35 nM	0.0008 s⁻¹	95800 M⁻¹ s⁻¹
B10	0.127 nM	1.75e-05 s⁻¹	137000 M⁻¹ s⁻¹
B11	0.486 nM	0.000125 s⁻¹	257000 M⁻¹ s⁻¹
B12	0.0533 nM	3.1e-06 s⁻¹	58200 M⁻¹ s⁻¹
